US8236925 (UNIVERSITY OF MINNESOTA, dated 2012)

Biological target: the molecule itself

B1: E. coli dihydrofolate reductase (DHFR) (enzyme)
chain: MISLIAALAVDRVIGMENAMPWNLPADLAWFKRNTLNKPVIMGRHTWESIGRPLPGRKNIILSSQPGTDDRVTWVKSVDEAIAACGDVPEIMVIGGGRVYEQFLPKAQKLYLTHIDAEVEGDTHFPDYEPDDWESVFSEFHDADAQNSHSYCFEILERR
  selectivity of dimerization for E. coli DHFR relative to mouse DHFR: > 1e+07
  ΔG of favorable protein-protein interactions: ≥ -3.1 kcal/mol
